Publication PMC11169542, “A probe for NIR-II imaging and multimodal analysis of early Alzheimer’s disease by targeting CTGF” (Nature Communications, 2024)
“And” between values parts separate entries of the source, which are not always exact repeats. Identical values can stand only once. Ends that are not written are not given here.

Tests used:
[1] = Pharmacokinetic study of DGC in C57BL/6J mice (serum Au by ICP-MS); type: in vivo; settings: for AUC(0-t) (AUClast) / AUC(0-∞) (AUCINF_obs) / AµMC(0-t) (AUMClast) / AµMC(0-∞) (AUMCINF_obs) / Cmax / MRT(0-t) (MRTlast) / MRT(0-∞) (MRTINF_obs) / Vz/F (Vz_obs) / elimination half-life t1/2z (HL_Lambda_z) / CLz/F (Cl_obs) / Tmax: 20 mg/kg i.v. single dose, n=3; for AUC(0-t) (AUClast) / AUC(0-∞) (AUCINF_obs) / AµMC(0-t) (AUMClast) / AµMC(0-∞) (AUMCINF_obs) / Cmax / MRT(0-t) (MRTlast) / MRT(0-∞) (MRTINF_obs) / Vz/F (Vz_obs) / elimination half-life t1/2z (HL_Lambda_z) / CLz/F (Cl_obs) / Tmax / Clast / C0 / Cmax_D / Lambda_z: serum Au by ICP-MS; for AUC(0-t) (AUClast) / AUC(0-∞) (AUCINF_obs) / AµMC(0-t) (AUMClast) / AµMC(0-∞) (AUMCINF_obs) / Cmax / MRT(0-t) (MRTlast) / MRT(0-∞) (MRTINF_obs) / Vz/F (Vz_obs) / elimination half-life t1/2z (HL_Lambda_z) / CLz/F (Cl_obs) / Tmax / Clast_pred / AUCINF_D_obs / AUCINF_D_pred / AUCINF_pred / AUCall / AUClast_D / AUMCINF_pred / Cl_pred / MRTINF_pred / Vss_obs / Vss_pred / Vz_pred / C0 / Cmax_D / Lambda_z: WinNonlin; for CLz/F (Cl_obs) / Tmax: 20 mg/kg; for Clast_pred / Clast / AUCINF_D_obs / AUCINF_D_pred / AUCINF_pred / AUCall / AUClast_D / AUMCINF_pred / Cl_pred / MRTINF_pred / Vss_obs / Vss_pred / Vz_pred / C0 / Cmax_D / Lambda_z: 20 mg/kg i.v.; for Clast_pred / Clast: Tlast 48 h
Protocol: Male and female mice were given a single intravenous dose of 20 mg/ kg (n = 3). The blood of posterior orbital venous plexus was collected at continuous time points (0.083, 0.25, 0.5, 1, 2, 4, 8, 10, 12, 24, and 48 h) and the serum was rapid separation by centrifugation (1200×g at 4 °C, 10 min). Au content in the serum sample was detected by ICP-MS. The pharmacokinetic index was obtained by using winnonlin8.4 […] model.

[2] = system: CTGF; test: DGC labelling of CTGF in cells by fluorescence imaging (CLSM); type: cell-based; settings: for FL Intensity of DGC per cell: 55 μM DGC 60 min, CLSM
Protocol: The U87MG, SH-SY5Y, and CTX TNA2 cells in confocal dishes were fixed with 4% paraformaldehyde solution (PFA) for 30 min. Next, the cells were washed with cold PBS three times, and 3% BSA in PBS solution was introduced to the cells to block the nonspecific recognition sites. Then, the cells were incubated with 55 μM DGC for 60 min at room temperature. The control cells were only incubated with a culture medium. Next, the nuclei were stained with 5 μg/mL DAPI solution for 5 min. Finally, the cells were observed by a confocal laser scanning microscope (CLSM, PerkinElmer, USA). The fluorescence intensity of each cell was measured by ImageJ software, the red channel was extracted by clicking Split Channels, and the red fluorescent region, except the nucleus was selected by Freehand selections. Then the average fluorescence intensity in this region was measured and recorded for statistical analysis.
To further determine the specificity of DGC to CTGF, immunofluorescence staining was performed with CTGF antibodies to determine the location of CTGF in cells. First, U87MG cells in confocal dishes were fixed with 4% PFA for 30 min. Next, the cells were washed with PBS three times, and 3% bovine serum albumin (BSA) in PBS solution. Then, the cells were incubated with CTGF antibody (dilution 1:100, Abcam, Cat#ab6992) in PBS for 4 h at 4 °C, and FITC-labeled Goat Anti-Rabbit IgG (H + L) (1: dilution 1:200, Bioss, Cat#bs-0370R-FITC) in 3% BSA solution was added to the cells for another 30 min at 37 °C in the dark. Subsequently, 55 μM DGC were incubated with the cells for 1 h. Finally, the cells were stained with DAPI for 5 min and washed with PBS before the CLSM image (Nikon).
Moreover, a binding site blocking study was performed to confirm the specificity of the DGC to CTGF. First, U87MG cells were fixed with 4% PFA. Then, a PBS solution containing 3% BSA was used to block the nonspecific recognition sites for 30 min. After BSA blocking, the cells were pre-incubated with 5 mM of free DAG peptide for 1 h, followed by 55 μM DGC added for 60 min. Then, DAPI (5 μg/mL) was added to U87MG cells to stain the nuclei. Finally, the cells were imaged by the CLSM system.

For “DGC: CTGF-targeting peptide-coated gold nanocluster: one Au26 gold nanocluster coated by eight DAG cyclic peptides, NIR-II and red fluorescence (CDAGRKQKC; also: cyclic peptide, ring not given here, eight peptides on one Au26 nanocluster via Cys Au-S bonds)”, the “AUC(0-t) (AUClast)” value ([1]; female C57BL/6J mice) was 650.995 µg·h/mL, the “AUC(0-∞) (AUCINF_obs)” value ([1]; female C57BL/6J mice) was 779.367 µg·h/mL and the “AµMC(0-t) (AUMClast)” value ([1]; female C57BL/6J mice) was 10136.5 h*h*mg/L. For the same substance, the “AµMC(0-∞) (AUMCINF_obs)” value ([1]; female C57BL/6J mice) was 19964.5 h*h*mg/L, the Cmax ([1]; female C57BL/6J mice) was 191.26 µg/mL and the “MRT(0-t) (MRTlast)” value ([1]; female C57BL/6J mice) was 15.5708 h. The “MRT(0-∞) (MRTINF_obs)” value ([1]; female C57BL/6J mice) was 25.6162 h, the “Vz/F (Vz_obs)” value ([1]; female C57BL/6J mice) was 0.7329 L/kg and the “elimination half-life t1/2z (HL_Lambda_z)” value ([1]; female C57BL/6J mice) was 19.7951 h. The “CLz/F (Cl_obs)” value ([1]; female C57BL/6J mice) was 0.5 mL/min/kg and 0.4277 mL/min/kg, the Tmax ([1]; female C57BL/6J mice) was 4.8 min and 4.98 min and the Clast_pred ([1]; female C57BL/6J mice) was 4.584 µg/mL. It also gave a Clast ([1]; female C57BL/6J mice) of 4.495 µg/mL, an AUCINF_D_obs ([1]; female C57BL/6J mice) of 38.9684 kg·mg·h/L/mg and an AUCINF_D_pred ([1]; female C57BL/6J mice) of 39.095 kg·mg·h/L/mg. For the same substance, the AUCINF_pred ([1]; female C57BL/6J mice) was 781.9 µg·h/mL, the AUCall ([1]; female C57BL/6J mice) was 650.995 µg·h/mL and the AUClast_D ([1]; female C57BL/6J mice) was 32.5498 kg·mg·h/L/mg. For the same substance, the AUMCINF_pred ([1]; female C57BL/6J mice) was 20158.4 h*h*mg/L, the Cl_pred ([1]; female C57BL/6J mice) was 0.4263 mL/min/kg and the MRTINF_pred ([1]; female C57BL/6J mice) was 25.7813 h. For the same substance, the Vss_obs ([1]; female C57BL/6J mice) was 0.6574 L/kg, the Vss_pred ([1]; female C57BL/6J mice) was 0.6595 L/kg and the Vz_pred ([1]; female C57BL/6J mice) was 0.7305 L/kg. It also gave a C0 ([1]; female C57BL/6J mice) of 267.189 µg/mL, a Cmax_D ([1]; female C57BL/6J mice) of 9.563 kg·mg/L/mg and a Lambda_z ([1]; female C57BL/6J mice) of 0.03502 h⁻¹. For the same substance, the “elimination half-life (t1/2z)” value ([1]; in mice, sex not specified) was “about 20 h”, the “AUC(0-t) (AUClast)” value ([1]; male C57BL/6J mice) was 615.219 µg·h/mL and the “AUC(0-∞) (AUCINF_obs)” value ([1]; male C57BL/6J mice) was 735.649 µg·h/mL. The “AµMC(0-t) (AUMClast)” value ([1]; male C57BL/6J mice) was 8803.77 h*h*mg/L, the “AµMC(0-∞) (AUMCINF_obs)” value ([1]; male C57BL/6J mice) was 18299.4 h*h*mg/L and the Cmax ([1]; male C57BL/6J mice) was 172.688 µg/mL. The “MRT(0-t) (MRTlast)” value ([1]; male C57BL/6J mice) was 14.31 h, the “MRT(0-∞) (MRTINF_obs)” value ([1]; male C57BL/6J mice) was 24.8751 h and the “Vz/F (Vz_obs)” value ([1]; male C57BL/6J mice) was 0.8386 L/kg. For the same substance, the “elimination half-life t1/2z (HL_Lambda_z)” value ([1]; male C57BL/6J mice) was 21.3817 h, the “CLz/F (Cl_obs)” value ([1]; male C57BL/6J mice) was 0.5 mL/min/kg and 0.4532 mL/min/kg and the Tmax ([1]; male C57BL/6J mice) was 4.8 min and 4.98 min. It also gave a Clast_pred ([1]; male C57BL/6J mice) of 3.998 µg/mL, a Clast ([1]; male C57BL/6J mice) of 3.904 µg/mL and an AUCINF_D_obs ([1]; male C57BL/6J mice) of 36.7825 kg·mg·h/L/mg. It also gave an AUCINF_D_pred ([1]; male C57BL/6J mice) of 36.9275 kg·mg·h/L/mg, an AUCINF_pred ([1]; male C57BL/6J mice) of 738.551 µg·h/mL and an AUCall ([1]; male C57BL/6J mice) of 615.219 µg·h/mL. It also gave an AUClast_D ([1]; male C57BL/6J mice) of 30.7609 kg·mg·h/L/mg, an AUMCINF_pred ([1]; male C57BL/6J mice) of 18528.2 h*h*mg/L and a Cl_pred ([1]; male C57BL/6J mice) of 0.4513 mL/min/kg. It also gave an MRTINF_pred ([1]; male C57BL/6J mice) of 25.0872 h, a Vss_obs ([1]; male C57BL/6J mice) of 0.6763 L/kg and a Vss_pred ([1]; male C57BL/6J mice) of 0.6794 L/kg. For the same substance, the Vz_pred ([1]; male C57BL/6J mice) was 0.8353 L/kg, the C0 ([1]; male C57BL/6J mice) was 204.126 µg/mL and the Cmax_D ([1]; male C57BL/6J mice) was 8.634 kg·mg/L/mg. The Lambda_z ([1]; male C57BL/6J mice) was 0.03242 h⁻¹, the “labelling of CTGF after blocking with free DAG peptide” value ([2]; U87MG cells pre-incubated with 5 mM free DAG 1 h, then 55 μM DGC 60 min) was “cannot label CTGF in cells pre-blocked by free DAG peptides” and the “co-localization coefficient (Pearson's correlation coefficient) of DGC and CTGF antibody” value ([2]; U87MG cells, ImageJ) was 0.946. For the same substance, the “FL Intensity of DGC per cell” value ([2]; fixed CTX TNA2 cells, replicate 1) was 5.779, the “FL Intensity of DGC per cell” value ([2]; fixed CTX TNA2 cells, replicate 2) was 3.821 and the “FL Intensity of DGC per cell” value ([2]; fixed CTX TNA2 cells, replicate 3) was 8.33. The “FL Intensity of DGC per cell” value ([2]; fixed SH-SY5Y cells, replicate 1) was 14.6594, the “FL Intensity of DGC per cell” value ([2]; fixed SH-SY5Y cells, replicate 2) was 16.8684 and the “FL Intensity of DGC per cell” value ([2]; fixed SH-SY5Y cells, replicate 3) was 12.4094. For the same substance, the “FL Intensity of DGC per cell” value ([2]; fixed U87MG cells, replicate 1) was 36.9955, the “FL Intensity of DGC per cell” value ([2]; fixed U87MG cells, replicate 2) was 33.5045 and the “FL Intensity of DGC per cell” value ([2]; fixed U87MG cells, replicate 3) was 35.4955.
